In paper PMC4824076, “Integrated microfluidic approach for quantitative high-throughput measurements of transcription factor binding affinities”:

Assays:
c-Jun [1] = target: c-Jun (UniProt P05412); experiment: MITOMI (QPID); details: QPID microfluidic MITOMI; 1 h incubation of in vitro expressed extract (about 25 ul, 50 ng protein) with spotted Cy5-dsDNA (0.0156-2 uM spotting dilutions, PEG …)
c-Jun;c-Fos (;) = c-Jun;c-Fos (;) (UniProt P05412+P01100); experiment: MITOMI (QPID); details: QPID microfluidic MITOMI; 1 h incubation of in vitro expressed extract (about 25 ul, 50 ng protein) with spotted Cy5-dsDNA (0.0156-2 uM spotting dilutions, PEG …)
c-Fos/c-Jun = c-Fos/c-Jun (Homo sapiens, UniProt P01100;P05412 full;full); experiment: MITOMI-type chip (QPID); rabbit reticulocyte lysate, 1 h; wash 50 mM HEPES; temperature not stated; DNA spotted at 0.0156-2 uM; details: tags: c-Fos N-cMyc, C-His6; c-Jun HA and V5 at the termini (kept); copies: 1;1; label: Cy5 on the primer strand
ATF1 = target: T1, ATF1 (Homo sapiens, UniProt P18846); experiment: as above; details: tags: N-cMyc, C-His6 (kept); chain copies: 2; label: Cy5 on the primer strand
T1 sequence: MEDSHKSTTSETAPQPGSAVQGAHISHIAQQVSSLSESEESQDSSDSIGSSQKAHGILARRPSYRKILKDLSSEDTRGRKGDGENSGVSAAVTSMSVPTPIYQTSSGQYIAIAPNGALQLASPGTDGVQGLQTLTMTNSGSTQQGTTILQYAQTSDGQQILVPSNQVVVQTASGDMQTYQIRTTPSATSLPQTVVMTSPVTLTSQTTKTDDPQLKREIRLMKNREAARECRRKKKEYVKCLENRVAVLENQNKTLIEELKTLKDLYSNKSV

c-Fos = c-Fos (Homo sapiens, UniProt P01100); experiment: as above; details: tags: N-cMyc, C-His6 (kept); label: Cy5 on the primer strand
c-Jun [2] = target: c-Jun (Homo sapiens, UniProt P05412); experiment: as above; details: tags: N-cMyc, C-His6 (kept); chain copies: 2; label: Cy5 on the primer strand
Sequence of c-Jun (Homo sapiens, UniProt P05412) (P05412 whole entry): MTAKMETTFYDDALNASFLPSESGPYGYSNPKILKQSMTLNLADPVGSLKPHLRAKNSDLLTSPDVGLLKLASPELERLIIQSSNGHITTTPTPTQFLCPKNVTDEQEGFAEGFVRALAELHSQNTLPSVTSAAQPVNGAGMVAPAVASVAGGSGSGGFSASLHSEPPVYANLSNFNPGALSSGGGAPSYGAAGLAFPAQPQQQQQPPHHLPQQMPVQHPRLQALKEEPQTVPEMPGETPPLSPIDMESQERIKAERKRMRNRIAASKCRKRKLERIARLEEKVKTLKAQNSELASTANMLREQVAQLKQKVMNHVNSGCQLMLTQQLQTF

Sequence of c-Fos (P01100 whole entry): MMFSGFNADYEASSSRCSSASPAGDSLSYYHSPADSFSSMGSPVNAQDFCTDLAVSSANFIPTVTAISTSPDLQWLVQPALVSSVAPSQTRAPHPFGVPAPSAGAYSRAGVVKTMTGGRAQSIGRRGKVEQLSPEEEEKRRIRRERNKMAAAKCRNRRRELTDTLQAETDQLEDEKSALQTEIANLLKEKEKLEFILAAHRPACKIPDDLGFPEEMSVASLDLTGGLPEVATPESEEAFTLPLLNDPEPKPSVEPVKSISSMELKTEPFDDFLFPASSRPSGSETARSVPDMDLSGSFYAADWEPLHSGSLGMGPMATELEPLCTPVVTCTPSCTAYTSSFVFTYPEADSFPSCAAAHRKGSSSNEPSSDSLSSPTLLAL
Sequence of c-Fos/c-Jun (P01100 whole entry, chain 1 of 2): as the sequence (P01100 whole entry) above
Sequence of c-Fos/c-Jun (P05412 whole entry, chain 2 of 2): as the sequence (P05412 whole entry) above
Sequence of c-Jun (UniProt P05412) (P05412 252-315): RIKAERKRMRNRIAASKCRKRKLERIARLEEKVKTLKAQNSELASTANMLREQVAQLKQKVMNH
Sequence of c-Jun;c-Fos (;) (P05412 252-315, chain 1 of 2): as the sequence (P05412 252-315) above
Sequence of c-Jun;c-Fos (;) (P01100 137-200, chain 2 of 2): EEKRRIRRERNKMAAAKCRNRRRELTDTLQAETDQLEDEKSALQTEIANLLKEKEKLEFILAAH

TTATGACCTGGGAGTGACGTCATGGAATCCACAGA (double strand) [oligo 2 (CRE)]
Kd (c-Jun [1]): 2400 nM | Kd (c-Jun;c-Fos (;)): 150 nM

TTATGACCTGGGAGTGAGTCAATGGAATCCACAGA (double strand) [oligo 4 (AP-1)]
Kd (c-Jun;c-Fos (;)): 500 nM

TTATCCACTTGCGCTCGCCGAGTGGCGTCACCAGCGGTACTGTAATGACGAT (double strand) [oligo 6 (CRE half-site)]
Kd (c-Jun;c-Fos (;)): 4000 nM

GGCCACTACCGCTTCCTCCACATGAGTCATGGTTTTCTCCACCAAGGAAGT (double strand) [oligo 3 (AP-1)]
Kd (c-Jun [1]): 2500 nM | Kd (c-Jun;c-Fos (;)): 270 nM

GGCCACTACCGCTTCCTCCACATGGCGTCATGGTTTTCTCCACCAAGGAAGT (double strand) [oligo 5 (CRE half-site)]
Kd (c-Jun;c-Fos (;)): 3500 nM

GGCCACTACCGCTTCCTCCACATGACGTCATGGTTTTCTCCACCAAGGAAGT (double strand) [oligo 1 (CRE)]
Kd (c-Jun [1]): 1300 nM | Kd (c-Jun;c-Fos (;)): 190 nM

B1: oligo 6 (HS) (dsDNA)
DNA 1: TTATCCACTTGCGCTCGCCGAGTGGCGTCACCAGCGGTACTGTAATGACGAT
DNA 2: ATCGTCATTACAGTACCGCTGGTGACGCCACTCGGCGAGCGCAAGTGGATAA
Kd (c-Fos/c-Jun): ~4000 nM | Kd (ATF1): 40 nM | Kd (c-Fos): > 2000 nM

B2: oligo 1 (CRE) (dsDNA)
DNA 1: GGCCACTACCGCTTCCTCCACATGACGTCATGGTTTTCTCCACCAAGGAAGT
DNA 2: ACTTCCTTGGTGGAGAAAACCATGACGTCATGTGGAGGAAGCGGTAGTGGCC
Kd (c-Fos/c-Jun): 190 nM | Kd (ATF1): 40 nM | Kd (c-Fos): > 2000 nM | Kd (c-Jun [2]): 1300 nM

B3: oligo 5 (HS) (dsDNA)
DNA 1: GGCCACTACCGCTTCCTCCACATGGCGTCATGGTTTTCTCCACCAAGGAAGT
DNA 2: ACTTCCTTGGTGGAGAAAACCATGACGCCATGTGGAGGAAGCGGTAGTGGCC
Kd (c-Fos/c-Jun): ~3500 nM | Kd (ATF1): 170 nM | Kd (c-Fos): > 2000 nM

B4: oligo 2 (CRE) (dsDNA)
DNA 1: TTATGACCTGGGAGTGACGTCATGGAATCCACAGA
DNA 2: TCTGTGGATTCCATGACGTCACTCCCAGGTCATAA
Kd (c-Fos/c-Jun): 150 nM | Kd (ATF1): 30 nM | Kd (c-Fos): > 2000 nM | Kd (c-Jun [2]): ~2400 nM

B5: oligo 4 (AP-1) (dsDNA)
DNA 1: TTATGACCTGGGAGTGAGTCAATGGAATCCACAGA
DNA 2: TCTGTGGATTCCATTGACTCACTCCCAGGTCATAA
Kd (c-Fos/c-Jun): 500 nM | Kd (ATF1): ~17000 nM | Kd (c-Fos): > 2000 nM

B6: oligo 7 (Mutant) (dsDNA)
DNA 1: GGCCACTACCGCTTCCTCCACAAATAAAATTGGTTTTCTCCACCAAGGAAGT
DNA 2: ACTTCCTTGGTGGAGAAAACCAATTTTATTTGTGGAGGAAGCGGTAGTGGCC
Kd (ATF1): > 2000 nM | Kd (c-Fos): > 2000 nM

B7: oligo 3 (AP-1) (dsDNA)
DNA 1: GGCCACTACCGCTTCCTCCACATGAGTCATGGTTTTCTCCACCAAGGAAGT
DNA 2: ACTTCCTTGGTGGAGAAAACCATGACTCATGTGGAGGAAGCGGTAGTGGCC
Kd (c-Fos/c-Jun): 270 nM | Kd (ATF1): ~11000 nM | Kd (c-Fos): > 2000 nM | Kd (c-Jun [2]): ~2500 nM
